Measured values reported in the nanobody polyreactivity screen of Harvey et al. (2022).

Assay: yeast display, Sf9 membrane polyspecificity reagent, FACS + sequencing; frameworks hold sequencing errors
Summary of the method: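 Galactose induction of a Saccharomyces cerevisiae BJ5465 synthetic nanobody display library ran 36–48 hours. The cells were then stained for 1 hour at 4 °C with 10% biotinylated, detergent-solubilized Sf9 membrane reagent, pulled down on streptavidin microbeads and FACS-sorted into low and high (top ~1%) gates on expression and reagent-binding fluorescence. Labels for polyreactivity follow the gate of origin.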

Row | Sequence | polyreactivity (PSR sort gate)
1 | QVQLVESGGGLVQAGGSLRLTCAASGFTIYLYTMGWYRQAPGKERELVATISWSGGSTYYADSVKGRFTISRDNAKNTVYLHMNSLKPEDTAVYYCAKAYNGRYTWRYDYWGQGTQVTVSS | high polyreactivity
2 | QVQLVESGGGLVQAGGSLRLTCAASGGTFDRNAMGWYRQAPGKERELVATITRRAGNTYYAYSVKGRFTISRDNAKNTVYLQMNSLKPEDTAVYYFAAYPLRSRRYYYWGQGTQVTVSS | high polyreactivity
3 | QVQLVESGGGLVQAGGSLRLTCAASGGTFQVNAMGWYRQAPGKEMELVAAINRSGGGTTYADSVKGRFTISRDNAKNTVYLQMNSLKPEDTAVYYCAVDFYTYYYVEYGYWGQGTEVTVSS | high polyreactivity
4 | QVQLVESGGGLVQAGGSLRLTCAASGIIFASNAMGWYRQAPGKEMELVATINWTDSSTYYADSVKGRFTISRDNAKNTVYLQMNSLKPEDTAVYYCNGVPHWFYRYGRYDYWGQGSQVTVSS | low polyreactivity
5 | QVQLVESGGGLVQAGGSLRLTCAASGIIFLDYVMGWYRQAPGKERELVAAINSGGSTYYADSVKGRFTISRDNAKNTVYLQMNSLKPEDTAVYYCAAVDYYKFDYWGQVTQVTVSS | low polyreactivity
6 | QVQLVESGGGLVQAGGSLRLTCAASGIIFQRNTMGWYRQAPGKERELVAAITSRGGRTYYADSVKGRFTISRDNAKNTVYLQMNSLKPEDTAVYYCAALLYFYSRPYGYWGQGTQVTVSS | high polyreactivity
7 | QVQLVESGGGLVQAGGSLRLTCAASGIIFRFYGMGWYRQEPGKEREFVAAISGGGGSTYYADSVKGRFTISRDNAKKTVYLQMNSLKPEDTAVYYCARYTYRSAFEYWGQGTQVTVSS | high polyreactivity
8 | QVQLVESGGGLVQAGGSLRLTCAASGIIFRGYAMGWYRQPPGKERELVAGITSGVRTYYADSVKGRFTISRDNAKNTVYLQMTSLKPEDTAVYYSNADAYGDDWKIYDYWGQGTQVTVSS | low polyreactivity
9 | QVQLVESGGGLVQAGGSLRLTCAASGIIFYPYAMGWYRQAPGKERELVAAISIGGGSTYYADSVKGRFTISRDNAKNTVYLQMNSLKPEDTAVYYCAAGTPYGILGYYYWGQGTQVTVSS | low polyreactivity
10 | QVQLVESGGGLVQAGGSLRLTCAASGITFKYYAMGWYRQAPGKERELVAAIRGSGGGTNYADSVKGRFTISRDNAMNTVYLQMNSLKQEDSAVYYCAAANWRRNDYRYRFDYWGQGTQVTVSS | high polyreactivity
11 | QVQLVESGGGLVQAGGSLRLTCAASGITFRKYAMGWYRQAPGKERELVAGIRYSGSSTYYADSVKGRFTISRDNAKNTVYLQMNSLKPEDTAVYYGATGGYVWYRSVNVWTRMDYWGQGTQVTVSS | high polyreactivity
12 | QVQLVESGGGLVQAGGSLRLTCAASGITFYYYAMGWYRQAPAKERELVAAISFRGGSTYYADSVKARFTISRDNPKNTFYLQMNSLNPEDTAVYYCASVTSPSWYTWVTYDYWGQGTQVTVSS | high polyreactivity
13 | QVQLVESGGGLVQAGGSLRLTCAASGITLLYNAMGWYRQAPGKESELVAGITGRGGSTYYADSVKGRFTISRDNAKNTVYLQMNSLKPEDTAVYYCAATTDYRYVGRIVIRDEHWGQGTQVTVSS | low polyreactivity
14 | QVQLVESGGGLVQAGGSLRLTCAASGITLYNYAMGWYRQAPGKERELVAAISLSGGRTYYADSVKGRFTISRDNAKNTVYLQMNSLKPEDTAVYYCAADWLNSDPYNYWGQGTQVTVSS | low polyreactivity
15 | QVQLVESGGGLVQAGGSLRLTCAASGLFYAMGWYRQAPGKQRELVAAISSVGSTNYADSVKGRFTISRDNAKNTVYLQMNSLKPEDTAVYYCAAYFYTYPVDRYGSYYWGQGTQLTVSS | low polyreactivity
16 | QVQLVESGGGLVQAGGSLRLTCAASGLIFRPYTMGWYRQAPGKERELVATISGSGASTNYADSVKGRFTNSRDNAKNTVYFQMNSLKPEDTSVYYCKGRSYSRMYYWGQGTQVTVSS | high polyreactivity
17 | QVQLVESGGGLVQAGGSLRLTCAASGLTFAGYAMGWYRQAPGKERELVAYITTSGGSTHYADSVKGRFTISRDNAKNTVYLQMNSLKPEDTAVYYCAAEGYPGDNELIGAFDYWGQGTQVTVSS | low polyreactivity
18 | QVQLVESGGGLVQAGGSLRLTCAASGLTFGFNAMGWYRQAPGKERELVAAISSRGGSTYYADSVKGRFTISRDNAKNTVYLQMNSLKPEDTAVYYCAVRYYSPYGYWGQGTQVTVSS | low polyreactivity
19 | QVQLVESGGGLVQAGGSLRLTCAASGLTFGGNAMGWYRQAHRKERELVAAISWSDDTTDYADSVKGRFTISRDNAKNSVYLQMNSLNPEDTAIYYCAARLPFEHVDYWGQGTQVTVSS | low polyreactivity
20 | QVQLVESGGGLVQAGGSLRLTCAASGLTFTYYAMGWYRQAPGKERELVAAISASGGNTYYADSVKGRFTISRDNAKNTVYLQMNSLKPEDTAVFYCAAESSIYRGYGYSGQGTQVTVSS | high polyreactivity
21 | QVQLVESGGGLVQAGGSLRLTCAASGNIFYTYAMGWYRQPPGKERELVAGLSSDGSTTYADSVKGRFTISRDNAKNTVYLQMNSLNPEDTAVYYCPADITGILWYGYYYWGQGTQVTVSS | low polyreactivity
22 | QVQLVESGGGLVQAGGSLRLTCAASGNTFSPNAMGWYRHAPGKERELVAAIDSRDGITYYADSVKGRFTISRDNAKNTVYLQMNSLKPEDTAVYYCAADEWYGESNFWGQGTQVTVSS | low polyreactivity

Row | Sequence | polyreactivity (PSR sort gate)
23 | QVQLVESGGGLVQAGGSLRLTCAASGNTFWDNAMRWYRQAPGKERELVAAIRWSTGSTHYADSVKGRFTISRDNAKNTVYLQMNSLKPEDTAVYDCAATDYYYYRDKYYGYVYWGQGTHVTVSS | low polyreactivity
24 | QVQLVESGGGLVQAGGSLRLTCAASGNTFYGKTIGWYRQAPGKERELVAAIRFTGGSTTYADSVKGRFTISRDNAKITVYLQLNRLKPEDTAVYYCNTVWVSFSSIYHEYDYWGQGTQVTVSS | low polyreactivity
25 | QVQLVESGGGLVQAGGSLRLTCAASGRIFAVYAMGWYRQAPGKERELVATISSSGSTHYADSVKGRFTISRDNAKNTVYLQMNSLKPEDTAVYYCNAGGSELKLGHDYWGQGTQVTVSS | low polyreactivity
26 | QVQLVESGGGLVQAGGSLRLTCAASGRIFGYYAKGWYSQAPGKERELGATITFGGGSTCYADSVKGRFTISRDNAKKTVYLQMNSLKPEDTAVYYCAADSGYLGIYGDEYSWGQGTQVTVSS | low polyreactivity
27 | QVQLVESGGGLVQAGGSLRLTCAASGRIFIYNTMGWYRQAPGTERELVATISSGGRTYYADSVKGRFTISRDNAKNTVYFQMNSLKPEDTAVYYCNARRRYYSVWRGWDNELDYWGQGTQVTVSS | high polyreactivity
28 | QVQLVESGGGLVQAGGSLRLTCAASGRIFKQYAMGWYRQAPGKEMELVATISSGGDTNYADSVKGRFTISRDNAKNTVYLQMNSLKPEDTAVYFCAAGDIYYAEYEYWGKGTQVTVSS | low polyreactivity
29 | QVQLVESGGGLVQAGGSLRLTCAASGRIFSFNAMVSYRKATGKERELVATIRTDGTTNYADSVKGRFTISRDNAKNTVYLQMNSMKPEDTAVYYCATDSGWSTYDFWGQGTQVTVSS | high polyreactivity
30 | QVQLVESGGGLVQAGGSLRLTCAASGRIFSNDKGWYRQAPGKERELVAAITWSGGTTHYADSVKGRFTISRDNAKNTVYLQMNSLKPEDTAVYYCARAGGHAYSYWGQGTQVTVSS | low polyreactivity
31 | QVQLVESGGGLVQAGGSLRLTCAASGRIFSRYAMGWYRQAPGKERELVASITRGGSTYADSVKGRFTISRDNAKNTVYLQMNSLKPEDTAVYYCNATYFTRYRQYDYWGQGTQVTVSS | low polyreactivity
32 | QVQLVESGGGLVQAGGSLRLTCAASGRIFTRYSMGWYRKAPGKEREFVAAITNSGASTYYADSVKGRFTISRDNAKITVYLQMNSLKPEDTAVYYCAGDGPYWWDYDYWGQGTQETVSS | high polyreactivity
33 | QVQLVESGGGLVQAGGSLRLTCAASGRIFVKNAMGWYRQAPGKERELVATICSGGNTNYADSVKGRFTISRDNAKNTVYLQMNSLKPEDTAVYYCAAVWDLGDYELPYDYWGLGTQVTVSS | low polyreactivity
34 | QVQLVESGGGLVQAGGSLRLTCAASGRIIKLYAMGWYRQAPGKETEFVAAITWSGGRTYYADSVKGRFTISRDNAKNTVYLQMNSLTPEDTAVYSCAAYDTYDWYDYWGQGTQVTVSS | high polyreactivity
35 | QVQLVESGGGLVQAGGSLRLTCAASGRILGYYAMGWYRPAPGKERELVAAITYSGGSTYYADSVKGRFSISRDNAKNTVYLQMNILKPEDTAVYYCAADKLLLGLYGSTWNDYWGQGTQVTVSS | low polyreactivity
36 | QVQLVESGGGLVQAGGSLRLTCAASGRTFASNDMGWYRQAPGKEMELVADINNGARTYYADSVKGRFTISRDNAKNTVYLQMNSLKPEDTAVYYCAARRYGKQVRLYGYWGQGTQVTVSS | high polyreactivity
37 | QVQLVESGGGLVQAGGSLRLTCAASGRTFGPYAMGWYRPAPGKERELVAAIRYIDDSTFYADSVKGRFTISRDNAKNTVYLQMNSLKPEDTAVYYCAAQRRVVGRHGLSLIRYDYWGQGTQVTVSS | low polyreactivity
38 | QVQLVESGGGLVQAGGSLRLTCAASGRTFKSYTMGWYRQAPGKEREFVAAISSRGGNTYYADSVKGRFTISRDNAKNTVYLQMNSLKPEDTAVYYCAAESSYWSFPTYDYWGQGTQVTVSS | high polyreactivity
39 | QVQLVESGGGLVQAGGSLRLTCAASGRTFPLNVMGWYRQAPGKERELVAAITVSAGSTYYADSVKGRFTISRDNAKNTVYLQMNSLKPEDTAVYYCAKATSSFYHYRYDYWGQGTQVTVSS | low polyreactivity
40 | QVQLVESGGGLVQAGGSLRLTCAASGRTFQYYSMGWYRQAPGKERELVAAISQDGGSTYYADSVKGRFTISRDNAKNTVYLQMNSLKPEDTAVYYCAARVDEYAYYALDDYWGQGTQVTVSS | low polyreactivity
41 | QVQLVESGGGLVQAGGSLRLTCAASGRTFSTYVMGWYRQAPGKEREFVAAISTGGGSTYYADSVKGRFTISRDNAKNTVYLQMNSLKPEDTAVYYCAAKRKIRGYGPYEFWGQGTQVTVSS | high polyreactivity
42 | QVQLVESGGGLVQAGGSLRLTCAASGRTFVNYAMGWYRQAPGKERELVAAISTSGGSTYYADSVKGRFTISRDNAKNTVYLQMNSLKPEDTAVYYCNKVRYLPDNLRQVTFDYWGQGTQVTVSS | low polyreactivity
43 | QVQLVESGGGLVQAGGSLRLTCAASGRTFWYYAMGWYRQAPGKERELVAAISRNGGSTYYEDSVKGRFTISRDNAKNTVYLQMNSLKPEDTAVYYCAATLLRDYDYWGQGTQVTVSS | high polyreactivity
